This series is described as follows: yeast display, Sf9 membrane polyspecificity reagent, FACS + sequencing; frameworks hold sequencing errors. The gist of the method:
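Galactose induction of a Saccharomyces cerevisiae BJ5465 synthetic nanobody display library ran 36–48 hours. The cells were then stained for 1 hour at 4 °C with 10% biotinylated, detergent-solubilized Sf9 membrane reagent, pulled down on streptavidin microbeads and FACS-sorted into low and high (top ~1%) gates on expression and reagent-binding fluorescence. Labels for polyreactivity follow the gate of origin.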
For the sequence “QVQLVESGGGLVQAGGSLRLSCAASGFTFSNNAMGRYRQAPGKEREFVAAISGTGGSTYYADSLKGRFTISRDNANNTVYLQMNSLKPEDTAVYYCARRRTYPPGRYYYWGQGTQETVSS”, the “polyreactivity (PSR sort gate)” value is “high polyreactivity”.
As for “QVQLVESGGGLVKAGGSLRLSCAASGFIFKRNVMGWYRQAPGKETELVARISSRGGSTYYADSVKGRFTISRDNAKNTVYLQMNSLKPEDTEVYYCAADFGTIRVYSGDYWGQGTQVTVSS”, the entry is “high polyreactivity”; as for “QVQLVESGGGLVQAGGSLRLSCAASGSIFRYNAMGWYRQEPGKERELVASINGGGGTYYPDSVKGRFTISRDNAKNTVYLQMNSLKPEDTAVLYCNTVVNSFSYASRFNFYYWGQGSQVTVSS”, “high polyreactivity”.
For the sequence “QVQLVESGGGLVQAGGSLRLSCAASGSTFQYNAMGWYRQAPGKERELVAAITGSGGSTYYADSVKGRFTISRDNAKNTVYLQMNSLKPEDTAVYYCAKLVRSFNWVLARHKYDYWGQGTQVTVSS”, the “polyreactivity (PSR sort gate)” value is given as “low polyreactivity”.
As for “QVQLVESGGGLVQAGGSLRLSCAASGRTFEIYAMGWYRHAPGKERELVAAISSSGGSTYYADSVKGRFTISRDNAKNTVYLQMNSLKPEDTAVYYCAARYRATLTRTRVGYWGQGTQLTVSS”, the entry is “high polyreactivity”.
With “QVQLVESGGGLVQAGGSLRLSCAASGRIFDYYAMGWYRQAPGKERELVAAISSSVGNTYYADSVKGRFTISRDNAKNTVYLQMNSLKPEDTAVYYFADYSYVRSSYEVEDDYWGQGTQVTVSS” the entry was “low polyreactivity”.
As for “QVQLVESGGGLVQAGGSLRLTCDASGRIFVHNAMGWYRQAPGKERELVAAISWSGSSTYYADSVKGRFTISRDNAKNSVYLQMNSLKPEDTAVYYCLGQGTQVTVSS”, the entry is “low polyreactivity”.
For the sequence “QVQLVESGGGLVQAGGSLRLSCAASGLTFSIYAMGWYREAPGKERELVAAITGRGGRTYYADSVKGRFTISRDNAKNTVYLQMHSLKPEDTAVYYCAARYRGTDFDYWGQGTQVTVSS”, the “polyreactivity (PSR sort gate)” value is on record as “high polyreactivity”.
For “QVQLVESGGGLVQARGSLRLSCAASGSTLTRNTMGGYRQAPGKERELVAGITRSGSSTYYADSVKGRFTISRDNAKNTVYLQMNSLKPEDTAVYYCAAPYRYRQNLGYWGQGTQVTVSS”, the “polyreactivity (PSR sort gate)” value is “high polyreactivity”.
For “QVQHVESGGGLVQAGGSLRLRCAASGSIFYRYVMGWYRQAHGKERELVAAISVSGGTTYYADSVKGRITISRDNAKNTVYLQMNRLKPEDTAVYYCAAEDSLTEDPAHDYWGQGTQVTVSS”, the “polyreactivity (PSR sort gate)” value is “low polyreactivity”.
As for “QVQLVESGGGLVQAGGSLRLSCAASGSIFSSNAMGWYRPAPGKERELVAAISSGGTTNYADSVKGRFTISRDNAKHTVYLQMNSLKPEDTAVYYCAKRGPSRPAEYDYWGQGTQVTVSS”, the entry is “low polyreactivity”; as for “QVQRVESGGGLVQARGSLRLSCAPSGSIFPYYAMGCYRPAPGKERELVAGISRRGGTTYYADSVKGRLTISRDNAKNTVYIQMHSLKPEDTAVYYCAARYGPYVDRYGYCGQGTQVTVSS”, “high polyreactivity”; as for “QVQLVESGGGLVQAGGSLRLSCAASGRIFGPYTMGWYRQEPGKERELVAAITGRVVSTYYADSVKGRFTISRDNAKNTVYLQMNSLQPEDTAVYYCAARIYYYNTRGDYWAQGTQVTVSS”, “high polyreactivity”.
With “QVQLVESRGGLVQAGGSLRLSCAAYGFTFPNNAMGWNRQAPGKERELVAAITWSGRSTYADSVKGRFTISRDNAKNTVYLQMNSLKPEDTAVDYCYTRGTYLSKTLPSAYDYWGQGTQVIVSS” the entry was “low polyreactivity”; with “QVQLVESGGGLVQAGGSLRLSCAASGGIFDTNAMGWSRQAPGKERELVAAIRGSGGTYYADSVKGRFTISRDNAKNTVYLQMNSLKPEDTAVYYCATRTYRVLAGSAWYHYNYWGQGTQVTVSS”, “high polyreactivity”; with “QVQLVESGGVLVQAGGSLRLSCAASGSIFNINAMGWYRQAPGKERELVAAMTSGDGTDYADSVKGRFTISRDNAKNTVYLQMNSLKPEDTAVYYCAAEYYWLVPERFDYWGQGTQVTVSS”, “low polyreactivity”.

Source of the values: the nanobody polyreactivity screen of Harvey et al. (2022).
